B1: Mothers against decapentaplegic homolog 4 (Homo sapiens), Q13485 (parent)
chain: MDNMSITNTPTSNDACLSIVHSLMCHRQGGESETFAKRAIESLVKKLKEKKDELDSLITAITTNGAHPSKCVTIQRTLDGRLQVAGRKGFPHVIYARLWRWPDLHKNELKHVKYCQYAFDLKCDSVCVNPYHYERVVSPGIDLSGLTLQSNAPSSMMVKDEYVHDFEGQPSLSTEGHSIQTIQHPPSNRASTETYSTPALLAPSESNATSTANFPNIPVASTSQPASILGGSHSEGLLQIASGPQPGQQQNGFTGQPATYHHNSTTTWTGSRTAPYTPNLPHHQNGHLQHHPPMPPHPGHYWPVHNELAFQPPISNHPAPEYWCSIAYFEMDVQVGETFKVPSSCPIVTVDGYVDPSGGDRFCLGQLSNVHRTEAIERARLHIGKGVQLECKGEGDVWVRCLSDHAVFVQSYYLDREAGRAPGDAVHKIYPSAYIKVFDLRQCHRQMQQQAATAQAAAAAQAAAVAGNIPGPGSVGGIAPAISLSAAAGIGVDDLRRLCILRMSFVKGWGPDYPRQSIKETPCWIEIHLHRALQLLDEVLHTMPIADPQPLD
partner: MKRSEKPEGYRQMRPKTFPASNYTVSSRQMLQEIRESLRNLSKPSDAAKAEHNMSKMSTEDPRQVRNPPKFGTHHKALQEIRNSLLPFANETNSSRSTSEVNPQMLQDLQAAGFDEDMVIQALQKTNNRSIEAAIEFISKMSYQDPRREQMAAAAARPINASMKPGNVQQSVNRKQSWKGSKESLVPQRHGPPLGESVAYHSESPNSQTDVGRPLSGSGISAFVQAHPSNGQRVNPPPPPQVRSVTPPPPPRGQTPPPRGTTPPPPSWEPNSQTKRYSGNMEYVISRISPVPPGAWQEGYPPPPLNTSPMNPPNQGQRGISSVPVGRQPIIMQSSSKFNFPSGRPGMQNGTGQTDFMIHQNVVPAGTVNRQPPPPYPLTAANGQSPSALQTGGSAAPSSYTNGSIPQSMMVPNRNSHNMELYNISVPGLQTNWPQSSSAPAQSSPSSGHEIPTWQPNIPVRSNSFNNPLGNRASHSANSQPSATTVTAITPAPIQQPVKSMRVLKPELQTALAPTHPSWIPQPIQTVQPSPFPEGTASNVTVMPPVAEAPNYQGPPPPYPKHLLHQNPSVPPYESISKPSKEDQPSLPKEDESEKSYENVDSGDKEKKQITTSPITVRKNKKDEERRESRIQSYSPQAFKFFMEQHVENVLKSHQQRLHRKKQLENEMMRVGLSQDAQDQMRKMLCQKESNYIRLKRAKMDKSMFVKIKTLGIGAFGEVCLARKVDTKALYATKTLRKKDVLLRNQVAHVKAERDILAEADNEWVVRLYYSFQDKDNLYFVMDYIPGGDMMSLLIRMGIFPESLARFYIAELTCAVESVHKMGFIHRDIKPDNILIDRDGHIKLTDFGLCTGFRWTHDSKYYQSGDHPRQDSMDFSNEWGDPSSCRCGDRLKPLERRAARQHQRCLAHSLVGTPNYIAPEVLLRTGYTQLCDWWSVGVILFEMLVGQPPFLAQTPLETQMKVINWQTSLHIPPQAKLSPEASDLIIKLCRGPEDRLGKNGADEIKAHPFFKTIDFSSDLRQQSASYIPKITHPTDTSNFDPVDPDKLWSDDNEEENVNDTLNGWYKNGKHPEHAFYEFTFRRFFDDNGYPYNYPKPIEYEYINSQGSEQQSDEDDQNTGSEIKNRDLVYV
B2: Mothers against decapentaplegic homolog 4 (Homo sapiens), Q13485 (parent)
chain: B1 chain
partner: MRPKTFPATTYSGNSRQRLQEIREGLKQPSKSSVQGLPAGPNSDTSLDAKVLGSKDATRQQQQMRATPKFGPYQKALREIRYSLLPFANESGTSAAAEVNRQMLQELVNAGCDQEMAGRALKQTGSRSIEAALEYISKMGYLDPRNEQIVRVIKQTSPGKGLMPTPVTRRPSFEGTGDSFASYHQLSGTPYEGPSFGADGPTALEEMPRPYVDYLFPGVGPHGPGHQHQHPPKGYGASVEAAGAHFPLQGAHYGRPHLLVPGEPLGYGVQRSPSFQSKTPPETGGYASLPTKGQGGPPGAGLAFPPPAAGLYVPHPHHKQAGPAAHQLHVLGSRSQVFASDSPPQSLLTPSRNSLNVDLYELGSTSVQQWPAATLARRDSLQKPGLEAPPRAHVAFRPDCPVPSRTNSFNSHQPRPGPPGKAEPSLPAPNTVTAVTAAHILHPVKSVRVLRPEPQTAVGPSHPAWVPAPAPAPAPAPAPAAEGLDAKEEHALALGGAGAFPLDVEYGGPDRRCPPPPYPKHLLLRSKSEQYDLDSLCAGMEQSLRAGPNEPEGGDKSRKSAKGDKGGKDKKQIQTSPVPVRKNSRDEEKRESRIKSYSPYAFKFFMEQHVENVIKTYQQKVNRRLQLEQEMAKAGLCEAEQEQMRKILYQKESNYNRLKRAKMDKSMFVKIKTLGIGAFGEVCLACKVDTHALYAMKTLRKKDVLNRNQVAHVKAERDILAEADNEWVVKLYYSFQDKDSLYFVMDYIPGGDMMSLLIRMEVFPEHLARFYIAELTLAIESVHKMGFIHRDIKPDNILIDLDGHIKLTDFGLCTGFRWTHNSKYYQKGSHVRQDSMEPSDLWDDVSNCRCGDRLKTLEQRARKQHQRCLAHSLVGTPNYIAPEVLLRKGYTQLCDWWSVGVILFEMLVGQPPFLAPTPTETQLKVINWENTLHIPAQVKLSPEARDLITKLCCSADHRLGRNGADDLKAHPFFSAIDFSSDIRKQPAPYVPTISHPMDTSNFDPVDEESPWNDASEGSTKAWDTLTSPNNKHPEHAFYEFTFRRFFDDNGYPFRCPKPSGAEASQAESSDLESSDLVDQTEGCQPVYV
B3: Mothers against decapentaplegic homolog 4 (Homo sapiens), Q13485 (parent)
chain: B1 chain
partner: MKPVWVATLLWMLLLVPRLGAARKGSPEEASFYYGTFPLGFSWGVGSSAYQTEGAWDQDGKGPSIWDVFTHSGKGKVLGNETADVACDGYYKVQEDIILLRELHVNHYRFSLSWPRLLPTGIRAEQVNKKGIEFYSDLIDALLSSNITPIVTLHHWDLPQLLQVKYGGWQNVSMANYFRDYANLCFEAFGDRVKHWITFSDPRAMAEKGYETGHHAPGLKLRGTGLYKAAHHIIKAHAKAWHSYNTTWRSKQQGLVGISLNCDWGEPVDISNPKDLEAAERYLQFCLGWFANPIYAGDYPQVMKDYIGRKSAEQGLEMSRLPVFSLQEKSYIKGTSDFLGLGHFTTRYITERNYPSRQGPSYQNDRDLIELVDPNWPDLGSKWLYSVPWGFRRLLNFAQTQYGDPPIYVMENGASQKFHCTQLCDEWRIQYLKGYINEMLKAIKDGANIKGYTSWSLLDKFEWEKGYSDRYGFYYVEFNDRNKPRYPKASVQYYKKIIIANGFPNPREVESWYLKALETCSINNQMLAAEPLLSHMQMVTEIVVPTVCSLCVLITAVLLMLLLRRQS
B4: Mothers against decapentaplegic homolog 4 (Homo sapiens), Q13485 (parent)
chain: B1 chain
partner: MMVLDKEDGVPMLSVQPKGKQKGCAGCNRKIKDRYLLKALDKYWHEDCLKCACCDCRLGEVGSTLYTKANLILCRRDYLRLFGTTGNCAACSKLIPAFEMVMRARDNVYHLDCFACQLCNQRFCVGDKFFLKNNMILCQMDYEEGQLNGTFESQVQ
B5: Mothers against decapentaplegic homolog 4 (Homo sapiens), Q13485 (parent)
chain: B1 chain
partner: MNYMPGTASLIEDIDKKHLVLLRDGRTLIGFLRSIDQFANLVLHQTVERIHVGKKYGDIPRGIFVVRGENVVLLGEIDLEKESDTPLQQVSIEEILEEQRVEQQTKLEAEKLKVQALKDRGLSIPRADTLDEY

Variants of: B1
Details: with lats1_human LATS1, O95835

| Variant | effect of a mutation on the interaction |
| --- | --- |
| R361H | with no effect |

Variants of: B2
Details: with lats2_human LATS2, Q9NRM7

| Variant | effect of a mutation on the interaction |
| --- | --- |
| D351H | with no effect |

Variants of: B2
Details: with lats2_human LATS2, Q9NRM7
Remark: another data set of the same source

| Variant | effect of a mutation on the interaction |
| --- | --- |
| G386D | with no effect |

Variants of: B2
Details: with lats2_human LATS2, Q9NRM7
Remark: another data set of the same source

| Variant | effect of a mutation on the interaction |
| --- | --- |
| R361C | with no effect |

Variants of: B2
Details: with lats2_human LATS2, Q9NRM7
Remark: another data set of the same source

| Variant | effect of a mutation on the interaction |
| --- | --- |
| R361H | with no effect |

Variants of: B3
Details: with lctl_human LCTL

| Variant | effect of a mutation on the interaction |
| --- | --- |
| D351H | with no effect |

Variants of: B3
Details: with lctl_human LCTL
Remark: another data set of the same source

| Variant | effect of a mutation on the interaction |
| --- | --- |
| G386D | with no effect |

Variants of: B4
Details: with rbtn1_human LMO1, P25800

| Variant | effect of a mutation on the interaction |
| --- | --- |
| D351H | with no effect |

Variants of: B4
Details: with rbtn1_human LMO1, P25800
Remark: another data set of the same source

| Variant | effect of a mutation on the interaction |
| --- | --- |
| G386D | with no effect |

Variants of: B4
Details: with rbtn1_human LMO1, P25800
Remark: another data set of the same source

| Variant | effect of a mutation on the interaction |
| --- | --- |
| R361C | with no effect |

Variants of: B4
Details: with rbtn1_human LMO1, P25800
Remark: another data set of the same source

| Variant | effect of a mutation on the interaction |
| --- | --- |
| R361H | with no effect |

Variants of: B5
Details: with lsm1_human LSM1, O15116

| Variant | effect of a mutation on the interaction |
| --- | --- |
| D351H | with no effect |

— IntAct's records for PubMed 35512704
